In paper PMC5775914 (Cell chemical biology, 2017):

Molecular target: fluorescein-labeled histone H3 N-terminal peptide (residues 1-21) (UniProt P68431 2-22, fluorescein-labeled (position not given))
Assay: fluorescence polarisation

Kd: 50 to 100 µM
B1: recombinant UBR7 PHD finger (domain or fragment)
chain: GLYCICKRPYPDPEDEIPDEMIQCVVCEDWFHGRHLGAIPPESGDFQEMVCQACMKR
